Source: patent publication US20180148503A1 (Memorial Sloan Kettering, published 2018)

What was measured:
[1] = biological target: T1, PRA435-443 (…) / HLA-A*0201 complex (human); test: flow cytometry on tumor cell lines
T1 construct: also called PRAME P435

[2] = biological target: T2, 009-AAAA (…) / HLA-A*0201 complex on T2 cells (human); test: phage FACS on peptide-loaded T2 cells
T2 construct: Control peptide with alanines at positions 4-7; also called EXT009-AAAA; 009-AAAA (position 4-7)

[3] = biological target: T3, 009-mut3 (…) / HLA-A*0201 complex on T2 cells (human); test: phage FACS on peptide-loaded T2 cells
T3 construct: also called EXT009-mut3; Pr302A

[4] = biological target: T4, 009-mut4 (…) / HLA-A*0201 complex on T2 cells (human); test: phage FACS on peptide-loaded T2 cells
T4 construct: also called EXT009-mut4

[5] = biological target: T5, 009-mut10 (…) / HLA-A*0201 complex on T2 cells (human); test: phage FACS on peptide-loaded T2 cells
T5 construct: Alanine variant at peptide position 10

[6] = biological target: T2, 009-AAAA (…) / HLA-A*0201 complex on T2 …; test: phage FACS on peptide-loaded T2 cells; remark: listed apart in the source
[7] = biological target: T6, PRA300-309 (…) / HLA-A*0201 complex (human); test: phage FACS on peptide-loaded T2 cells
T6 construct: also called PRAME300; PRAME P300

[8] = biological target: T7, 009-mut8 (…) / HLA-A*0201 complex on T2 cells (human); test: phage FACS on peptide-loaded T2 cells
T7 construct: also called EXT009-mut8

[9] = biological target: T8, 009-mut6 (…) / HLA-A*0201 complex on T2 cells (human); test: phage FACS on peptide-loaded T2 cells
T8 construct: also called EXT009-mut6

[10] = biological target: T9, 009-mut9 (…) / HLA-A*0201 complex on T2 cells (human); test: phage FACS on peptide-loaded T2 cells
T9 construct: also called EXT009-mut9

[11] = biological target: T10, 009-mut2 (…) / HLA-A*0201 complex on T2 cells (human); test: phage FACS on peptide-loaded T2 cells
T10 construct: also called EXT009-mut2

[12] = biological target: T11, 009-mut5 (…) / HLA-A*0201 complex on T2 cells (human); test: phage FACS on peptide-loaded T2 cells
T11 construct: also called EXT009-mut5

[13] = biological target: T12, 009-mut7 (…) / HLA-A*0201 complex on T2 cells (human); test: phage FACS on peptide-loaded T2 cells
T12 construct: also called EXT009-mut7; Pr306A

[14] = biological target: T13, HLA-A*0201 on T2 cells without added peptide (human); test: phage FACS on T2 cells without peptide
T13 construct: Background target (T2 cells with no peptide pulsed); also used as the HLA-A*02 partner of the peptide in the stabilisation read-out; also called T2 cells alone; unpulsed T2 cells

[15] = biological target: T6, PRA300-309 (…) / HLA-A*0201 complex; test: cell-based or functional assay
[16] = biological target: T6, PRA300-309 (…) / HLA-A*0201 complex; test: method not stated; told in the ADCC example with PRAME+/HLA-A*02:01+ leukemia cells; upper end of the printed range 3-4 nM
[17] = biological target: T6, PRA300-309 (…) / HLA-A*0201 complex; test: method not stated; told in the ADCC example with PRAME+/HLA-A*02:01+ leukemia cells; lower end of the printed range 3-4 nM
[18] = biological target: T3, 009-mut3 (…) / HLA-A*0201 complex on T2 …; test: flow cytometry, APC-Pr300#20 at 3 µg/ml on peptide-pulsed T2 cells; the sheet gives 324 for T2 alone and 68351 for Pr300
[19] = biological target: T4, 009-mut4 (…) / HLA-A*0201 complex on T2 …; test: as above
[20] = biological target: T7, 009-mut8 (…) / HLA-A*0201 complex on T2 …; test: as above
[21] = biological target: T8, 009-mut6 (…) / HLA-A*0201 complex on T2 …; test: as above
[22] = biological target: T9, 009-mut9 (…) / HLA-A*0201 complex on T2 …; test: as above
[23] = biological target: T11, 009-mut5 (…) / HLA-A*0201 complex on T2 …; test: as above
[24] = biological target: T12, 009-mut7 (…) / HLA-A*0201 complex on T2 …; test: as above
[25] = biological target: T13, HLA-A*0201 on T2 cells without added …; test: flow cytometry, Prame20 mAb on T2 cells without peptide; axis without numbers
[26] = biological target: T13, HLA-A*0201 on T2 cells without added …; test: T2 stabilisation: surface HLA-A*02 level after pulsing with 50 µg/mL peptide, flow cytometry; the staining antibody is not named for this panel

B1: Pr435#37 antibody (antibody, V domains shown)
VH: EVQLVESGAEVKKPGASVKVSCKASGYTFTSYYMHWVRQAPGQGLEWMGIINPSGGSTSYAQKFQGRVTMTRDTSTSTVYMELSSLRSEDTAVYYCAAGSYYSLDIWGQGTMVTVSS
VL: LLPVLTQPHSVSESPGKTVTISCTGSSGSIASNFVQWYQQRPGSAPTTVIYDDNQRPSGVPDRFSASIDRSSNSASLTISGLKTDDEADYYCQSYDGSNVIFGGGTKLTVLG
notes: also called Pr4350#37
Q: Does B1 bind [1]?
A: Result: binds

B2: EXT009-17 phage (scFv phage clone) (scFv)
scFv: QSVLTQPPSVSGAPGQRVTISCTGSSSNIGAGFDVHWYQQLPGTAPKLLIFGNSNRPSGVPDRFSGSKSGTSASLAITGLQAEDEADYYCQSYDSSLSGYVFGSGTKVTVLGSRGGGGSGGGGSGGGGSLEMAEVQLVESGAEVKKPGSSVKVSCKASGGTFSSYAISWVRQAPGQGLEWMGRIIPIFGIANYAQKFQGRVTITADKSTSTAYMELSSLRSEDTAVYYCARSMWYMDSWGQGTLVTVSS
Q: Does B2 bind [2]?
A: Result: no binding

Q: And the MFI [3]?
A: Its MFI is 95.5.

Q: What about the MFI [4] of the same binder?
A: Its MFI is 7510.

Q: And the MFI [5]?
A: The MFI was 146.

Q: And the MFI [6]?
A: The MFI was 85.7.

Q: And the MFI [7]?
A: Its MFI is 19400.

Q: And the MFI [8]?
A: The MFI was 96.1.

Q: What about the MFI [9] of the same binder?
A: The MFI was 23800.

Q: What about the MFI [10] of the same binder?
A: The MFI was 79.7.

Q: And the MFI [11]?
A: Its MFI is 82.

Q: What about the MFI [12] of the same binder?
A: The MFI was 85.1.

Q: And the MFI [13]?
A: Its MFI is 82.1.

Q: What about the MFI [14] of the same binder?
A: Its MFI is 82.8.

B3: Pr300#20-MAGE (antibody, V domains shown)
VH: QVQLVQSGAEVRKPGASVKVSCKASGGTFSSYAISWVRQAPGQGLEWMGRIIPILGIANYAQKFQGRVTITADKSTSTAYMELSSLRSEDTAVYYCARHYGQWWDYWGQGTLVTVSS
VL: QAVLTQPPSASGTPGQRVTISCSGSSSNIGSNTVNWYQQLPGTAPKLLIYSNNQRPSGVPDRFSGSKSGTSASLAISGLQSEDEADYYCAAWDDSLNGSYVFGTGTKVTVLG
modifications: modified afucosylated Fc
notes: also called Pr#20-Fc enhanced; Pr20M
Q: What does the source list for B3?
A: EC50 (ADCC, 51Cr release, human PBMC effectors, E:T 50:1) [15]: 2 to 3 nM; Kd [16]: ≤ 4 nM; Kd [17]: ≥ 3 nM

B4: Pr300#20 human IgG1 antibody (antibody, V domains shown)
VH: B3 VH
VL: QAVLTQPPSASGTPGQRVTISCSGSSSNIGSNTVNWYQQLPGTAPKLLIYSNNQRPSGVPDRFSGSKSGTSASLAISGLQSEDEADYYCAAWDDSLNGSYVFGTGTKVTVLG
notes: Full-length human IgG1 with matching human lambda constant region; Used APC-conjugated in flow cytometry; also called Pr#20; PR#20
Q: Which “Median: APC-A” value [18] does the source give for B4 here?
A: Its value is 18900.

Q: And the “Median: APC-A” value [19]?
A: Its value is 72800.

Q: And the “Median: APC-A” value [20]?
A: Its value is 10900.

Q: What about the “Median: APC-A” value [21] of the same binder?
A: Its value is 28600.

Q: What about the “Median: APC-A” value [22] of the same binder?
A: The value was 730.

Q: And the “Median: APC-A” value [23]?
A: The value was 6240.

Q: What about the “Median: APC-A” value [24] of the same binder?
A: The value was 41500.

Q: Does B4 bind [25]?
A: Result: no binding

B5: Pr435#12 antibody (antibody, V domains shown)
VH: EVQLVESGAEVKKPGSSVKVSCKASGGTFSSYAISWVRQAPGQGLEWMGRIIPILGIANYAQKFQGRVTITADKSTSTAYMELSSLRSEDTAVYYCARQGYVWSEMDFWGQGTLVTVSS
VL: LLPVLTQPPSVSVAPGKTARITCGGNNIGSKSVHWYQQKPGQAPVLVIYYDSDRPSGIPERFSGSNSGNTATLTISRVEAGDEADYYCQVWDSITDHYVFGTGTKVTVLG
notes: also called Pr4350#12
Q: Does B5 bind [1]?
A: Result: binds

B6: PRA300-309 peptide (ALYVDSLFFL) (peptide)
peptide: ALYVDSLFFL
notes: also called pr300 peptide; PRAME300 peptide
Q: Does B6 bind [26]?
A: Result: binds

B7: EXT009-8 phage (scFv phage clone) (scFv)
scFv: QSVVTQPPAVSGALGQRVTISCTGTTSNIGAGFDVHWYQQRPGAAPKLLISGNTHRPSGVPDRISGSKSGTLASLAITGLQAEDEADYYCQSYDRSLSTILFGGGTKLTVLGSRGGGGSGGGGSGGGGSLEMAQVQLVQSGAEVKKPGSSVKVSCKASGGTFSSHPISWVRQAPGQGLEWMGRIIPMLDIPNNAQKFQGRVTITADKSTDTAYLELSSLTSEDTAVYYCARGLYYYDYWGQGTLVTVSS
notes: also called EXT009-08
Q: What does the source list for B7?
A: binding result [2]: no binding; MFI [3]: 88.2; MFI [4]: 87.6; MFI [5]: 83.2; MFI [6]: 86.3; MFI [7]: 1360; MFI [8]: 82.5; MFI [9]: 3830; MFI [10]: 83.2; MFI [11]: 83.3; MFI [12]: 138; MFI [13]: 83.1; MFI [14]: 85.9
